± gives the standard deviation of the averaged measurements.
How the values were obtained:
MCF7 = test: percentage of EdU-negative (G0-arrested) nuclei per well, 72 h; higher = more G0 arrest; settings: reference: sequence is the full UniProt precursor, the tested protein was the secreted form or ectodomain
hTERT-HMEC = test: as above; settings: reference: sequence is the full UniProt precursor, the tested protein was the secreted form or ectodomain
[1] = protein concentration 0.03125 µM
[2] = protein concentration 0.3125 µM
[3] = protein concentration 0.0225 µM
[4] = protein concentration 0.0205 µM
[5] = protein concentration 0.00925 µM
[6] = protein concentration 0.0925 µM
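Also: secreted proteins added to cultured cells, EdU pulse at the end, nuclei found by Hoechst imaging, EdU status from nuclear versus surrounding ring intensity ratio, PBS as neutral control.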

MLPRVGCPALPLPPPPLLPLLLLLLGASGGGGGARAEVLFRCPPCTPERLAACGPPPVAPPAAVAAVAGGARMPCAELVREPGCGCCSVCARLEGEACGVYTPRCGQGLRCYPHPGSELPLQALVMGEGTCEKRRDAEYGASPEQVADNGDDHSEGGLVENHVDSTMNMLGGGGSAGRKPLKSGMKELAVFREKVTEQHRQMGKGGKHHLGLEEPKKLRPPPARTPCQQELDQVLERISTMRLPDERGPLEHLYSLHIPNCDKHGLYNLKQCKMSLNGQRGECWCVNPNTGKLIQGAPTIRGDPECHLFYNEQQEARGVHTQRMQ
percentage of EdU-negative (MCF7; [1]): 27.7 ± 2.4% | percentage of EdU-negative (MCF7; [2]): 31.1 ± 3.1% | percentage of EdU-negative (hTERT-HMEC; [1]): 4.88 ± 1% | percentage of EdU-negative (hTERT-HMEC; [2]): 6.96 ± 0.2%

MLPWLLVFSALGIQAWGDSSWNKTQAKQVSEGLQYLFENISQLTEKGLPTDVSTTVSRKAWGAEAVGCSIQLTTPVNVLVIHHVPGLECHDQTVCSQRLRELQAHHVHNNSGCDVAYNFLVGDDGRVYEGVGWNIQGVHTQGYNNISLGFAFFGTKKGHSPSPAALSAMENLITYAVQKGHLSSSYVQPLLGKGENCLAPRQKTSLKKACPGVVPRSVWGARETHCPRMTLPAKYGIIIHTAGRTCNISDECRLLVRDIQSFYIDRLKSCDIGYNFLVGQDGAIYEGVGWNVQGSSTPGYDDIALGITFMGTFTGIPPNAAALEAAQDLIQCAMVKGYLTPNYLLVGHSDVARTLSPGQALYNIISTWPHFKH [Q96LB8]
percentage of EdU-negative (MCF7; [3]): 24.7 ± 0.28% | percentage of EdU-negative (MCF7; protein concentration 0.225 µM): 25 ± 1.5% | percentage of EdU-negative (hTERT-HMEC; [3]): 5.75 ± 0.76% | percentage of EdU-negative (hTERT-HMEC; protein concentration 0.225 µM): 6.41 ± 1.2%

MLPWTALGLALSLRLALARSGAERGPPASAPRGDLMFLLDSSASVSHYEFSRVREFVGQLVAPLPLGTGALRASLVHVGSRPYTEFPFGQHSSGEAAQDAVRASAQRMGDTHTGLALVYAKEQLFAEASGARPGVPKVLVWVTDGGSSDPVGPPMQELKDLGVTVFIVSTGRGNFLELSAAASAPAEKHLHFVDVDDLHIIVQELRGSILDAMRPQQLHATEITSSGFRLAWPPLLTADSGYYVLELVPSAQPGAARRQQLPGNATDWIWAGLDPDTDYDVALVPESNVRLLRPQILRVRTRPGEAGPGASGPESGAGPAPTQLAALPAPEEAGPERIVISHARPRSLRVSWAPALGSAAALGYHVQFGPLRGGEAQRVEVPAGRNCTTLQGLAPGTAYLVTVTAAFRSGRESALSAKACTPDGPRPRPRPVPRAPTPGTASREP [Q6PCB0]
percentage of EdU-negative (MCF7; [4]): 26.5 ± 2.2% | percentage of EdU-negative (MCF7; protein concentration 0.205 µM): 27.6 ± 0.87% | percentage of EdU-negative (hTERT-HMEC; [4]): 5.62 ± 0.91% | percentage of EdU-negative (hTERT-HMEC; protein concentration 0.205 µM): 5.75 ± 1.2%

MLQGPGSLLLLFLASHCCLGSARGLFLFGQPDFSYKRSNCKPIPANLQLCHGIEYQNMRLPNLLGHETMKEVLEQAGAWIPLVMKQCHPDTKKFLCSLFAPVCLDDLDETIQPCHSLCVQVKDRCAPVMSAFGFPWPDMLECDRFPQDNDLCIPLASSDHLLPATEEAPKVCEACKNKNDDDNDIMETLCKNDFALKIKVKEITYINRDTKIILETKSKTIYKLNGVSERDLKKSVLWLKDSLQCTCEEMNDINAPYLVMGQKQGGELVITSVKRWQKGQREFKRISRSIRKLQC [Q96HF1]
percentage of EdU-negative (MCF7; [5]): 21.9 ± 2.5% | percentage of EdU-negative (MCF7; [6]): 26.3 ± 1.9% | percentage of EdU-negative (hTERT-HMEC; [5]): 5.51 ± 0.23% | percentage of EdU-negative (hTERT-HMEC; [6]): 5.34 ± 0.013%

MLQGTCSVLLLWGILGAIQAQQQEVISPDTTERNNNCPEKTDCPIHVYFVLDTSESVTMQSPTDILLFHMKQFVPQFISQLQNEFYLDQVALSWRYGGLHFSDQVEVFSPPGSDRASFIKNLQGISSFRRGTFTDCALANMTEQIRQDRSKGTVHFAVVITDGHVTGSPCGGIKLQAERAREEGIRLFAVAPNQNLKEQGLRDIASTPHELYRNDYATMLPDSTEIDQDTINRIIKVMKHEAYGECYKVSCLEIPGPSGPKGYRGQKGAKGNMGEPGEPGQKGRQGDPGIEGPIGFPGPKGVPGFKGEKGEFGADGRKGAPGLAGKNGTDGQKGKLGRIGPPGCKGDPGNRGPDGYPGEAGSPGERGDQGGKGDPGRPGRRGPPGEIGAKGSKGYQGNSGAPGSPGVKGAKGGPGPRGPKGEPGRRGDPGTKGSPGSDGPKGEKGDPGPEGPRGLAGEVGNKGAKGDRGLPGPRGPQGALGEPGKQGSRGDPGDAGPRGDSGQPGPKGDPGRPGFSYPGPRGAPGEKGEPGPRGPEGGRGDFGLKGEPGRKGEKGEPADPGPPGEPGPRGPRGVPGPEGEPGPPGDPGLTECDVMTYVRETCGCCDCEKRCGALDVVFVIDSSESIGYTNFTLEKNFVINVVNRLGAIAKDPKSETGTRVGVVQYSHEGTFEAIQLDDERIDSLSSFKEAVKNLEWIAGGTWTPSALKFAYDRLIKESRRQKTRVFAVVITDGRHDPRDDDLNLRALCDRDVTVTAIGIGDMFHEKHESENLYSIACDKPQQVRNMTLFSDLVAEKFIDDMEDVLCPDPQIVCPDLPCQTELSVAQCTQRPVDIVFLLDGSERLGEQNFHKARRFVEQVARRLTLARRDDDPLNARVALLQFGGPGEQQVAFPLSHNLTAIHEALETTQYLNSFSHVGAGVVHAINAIVRSPRGGARRHAELSFVFLTDGVTGNDSLHESAHSMRKQNVVPTVLALGSDVDMDVLTTLSLGDRAAVFHEKDYDSLAQPGFFDRFIRWIC
percentage of EdU-negative (MCF7; protein concentration 0.013 µM): 27.1 ± 0.99% | percentage of EdU-negative (MCF7; protein concentration 0.13 µM): 27.7 ± 1.8% | percentage of EdU-negative (hTERT-HMEC; protein concentration 0.013 µM): 6.76 ± 1.4% | percentage of EdU-negative (hTERT-HMEC; protein concentration 0.13 µM): 50.9 ± 9.9%

MLQLWKLVLLCGVLTGTSESLLDNLGNDLSNVVDKLEPVLHEGLETVDNTLKGILEKLKVDLGVLQKSSAWQLAKQKAQEAEKLLNNVISKLLPTNTDIFGLKISNSLILDVKAEPIDDGKGLNLSFPVTANVTVAGPIIGQIINLKASLDLLTAVTIETDPQTHQPVAVLGECASDPTSISLSLLDKHSQIINKFVNSVINTLKSTVSSLLQKEICPLIRIFIHSLDVNVIQQVVDNPQHKTQLQTLI [Q96DR5]
percentage of EdU-negative (MCF7; [3]): 27.4 ± 1.7% | percentage of EdU-negative (MCF7; protein concentration 0.225 µM): 27.4 ± 1.2% | percentage of EdU-negative (hTERT-HMEC; [3]): 4.84 ± 0.42% | percentage of EdU-negative (hTERT-HMEC; protein concentration 0.225 µM): 4.68 ± 0.1%
